Experiment [1] deals with T1, hCD33 (recombinant, construct not stated) (human, UniProt P20138 18-259, limits assumed).
T1 construct: also called CD33 (Ligand 1)
In words: switchSENSE; KD,1 (affinity). As to the method:
(§1) The designed ankyrin repeat proteins: DARPin® protein #20, DARPin® protein #21, DARPin® protein #22, DARPin® protein #27, DARPin® protein #40 and DARPin® protein #41 were tested in a concentration of 0.16 and 64 nM (in a buffer PE140 containing 10 mM Na2HPO4/NaH2PO4, 140 mM NaCl, 0.05% Tween20, 50 μM EDTA, 50 μM EGTA) for binding against two ligands hCD33 and hCD123, which both were immobilized simultaneously to DNA nanolevers, on the surface, at a pre-defined ratio (2:1, CD33:CD123) and 10% density (100:50) on an ADP-48-1-0 chip, where 100% density 1000 receptors/μm2 (preincubated R1-B48-CD123 and G1-A48-CD33 (100 nM) diluted in cNL-48 (dark)). Briefly the following steps were performed: [0724] Conjugation. Amine coupling of the two ligands (CD33 and CD123) to the DNA nanolever (A48, B48, respectively) and purification of the conjugates using the proFIRE® solution (Dynamic Biosensors GmbH) at 25° C. [0725] Evaluation of all the combined affinity and avidity of all different proteins to both ligands attached on the surface of an ADP chip using a DRX+ instrument (dynamic BIOSENSORS). [0726] Statistical analysis (repeatability from 2 to 5 times) including regeneration of the chip surface every concentration analyzed and long dissociation times and data were fitted using a bi-exponential global fit.

The target of experiment [2] is T2, hCD123 (recombinant, construct not stated) (human, UniProt P26951 19-305, limits assumed).
T2 construct: also called CD123 (Ligand 2)
T2 sequence (looked up): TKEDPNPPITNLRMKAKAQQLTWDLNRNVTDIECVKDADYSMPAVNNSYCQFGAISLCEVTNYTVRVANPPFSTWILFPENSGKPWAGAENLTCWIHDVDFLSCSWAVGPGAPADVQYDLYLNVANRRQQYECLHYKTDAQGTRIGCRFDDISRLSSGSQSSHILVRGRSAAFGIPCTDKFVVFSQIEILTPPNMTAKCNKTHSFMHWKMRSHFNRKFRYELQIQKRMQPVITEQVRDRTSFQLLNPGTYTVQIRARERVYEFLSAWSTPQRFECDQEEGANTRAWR
In words: switchSENSE; KD,1 (affinity). As to the method:
as §1

The target in experiment [3] is T1, hCD33 (recombinant, construct not …). In words: switchSENSE, hCD33 and hCD123 co-immobilised 2:1; panel headed CD33, column KD1 (affinity).
For experiment [4], the target named is T2, hCD123 (recombinant, construct not …). Kind of experiment: switchSENSE, CD33 and CD123 on one chip; kon to CD123. As to the method:
as §1

Experiment [5] addresses T3, human CD3 on primary human pan-T cells (human, UniProt P07766 23-207; P09693 23-182; P04234 22-171; P20963 22-164).
T3 construct: whole, on cells; Native complex on T cells isolated from PBMC; also called CD3 on Pan-T cells
Kind of experiment: Mirrorball cytometry on primary human pan-T cells, 600 µM HSA. As to the method:
The determination of T cell binding was performed with primary human T cells using Mirrorball laser scanning imaging cytometry. Therefore, primary T cells were isolated from human peripheral blood mononuclear cells (PBMCs) using a pan-T cell purification kit (Miltenyi Biotec). A titration of DARPin® protein #27, DARPin® protein #28 and DARPin® protein #29 and DARPin® protein #30 were incubated with 50′000 pan-T cells per well in presence of 600 μM human serum albumin (to mimic physiological serum concentration) for 30 minutes at 4° C. Two benchmark T-cell engagers, AMG330 and flotetuzumab were applied as controls, targeting CD33 or CD123. After washing, CD3 binding was detected by 1:100-diluted anti-penta-His Alexa Fluor 488 antibody (Qiagen). After 30 min incubation at 4° C., cells were washed and resuspended in Cytofix fixation buffer (BD Biosciences) and counterstained by 5 μM DRAQ5 (Abcam) for 15 min at RT. Median of mean fluorescence intensities of Alexa Fluor 488 binding on far-red counterstained cells were measured by Mirrorball using Cellista software (SPT Labtech) and data was plotted using GraphPad Prism 8.

T1 sequence (P20138 18-259 limits assumed): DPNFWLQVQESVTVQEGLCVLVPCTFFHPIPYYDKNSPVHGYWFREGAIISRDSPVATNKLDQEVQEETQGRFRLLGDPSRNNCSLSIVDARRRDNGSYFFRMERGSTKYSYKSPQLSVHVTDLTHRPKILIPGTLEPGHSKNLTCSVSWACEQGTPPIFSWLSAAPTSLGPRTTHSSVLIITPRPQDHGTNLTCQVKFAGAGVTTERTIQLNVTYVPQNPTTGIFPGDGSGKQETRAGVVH
T3 sequence (P07766 23-207, chain 1 of 4): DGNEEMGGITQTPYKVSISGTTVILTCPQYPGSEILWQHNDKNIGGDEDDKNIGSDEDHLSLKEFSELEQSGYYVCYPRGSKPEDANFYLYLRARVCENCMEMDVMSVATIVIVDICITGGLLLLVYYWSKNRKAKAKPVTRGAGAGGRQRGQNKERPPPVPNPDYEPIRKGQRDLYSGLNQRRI
T3 sequence (P09693 23-182, chain 2 of 4): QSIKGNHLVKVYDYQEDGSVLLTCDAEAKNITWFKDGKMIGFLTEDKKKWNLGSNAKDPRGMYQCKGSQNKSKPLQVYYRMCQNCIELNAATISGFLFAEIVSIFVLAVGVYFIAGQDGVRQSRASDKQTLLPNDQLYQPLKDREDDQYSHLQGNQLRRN
T3 sequence (P04234 22-171, chain 3 of 4): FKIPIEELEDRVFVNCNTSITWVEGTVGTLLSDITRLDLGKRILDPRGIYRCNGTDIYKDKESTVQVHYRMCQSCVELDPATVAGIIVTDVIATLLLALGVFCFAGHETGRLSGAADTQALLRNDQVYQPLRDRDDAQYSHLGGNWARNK
T3 sequence (P20963 22-164, chain 4 of 4): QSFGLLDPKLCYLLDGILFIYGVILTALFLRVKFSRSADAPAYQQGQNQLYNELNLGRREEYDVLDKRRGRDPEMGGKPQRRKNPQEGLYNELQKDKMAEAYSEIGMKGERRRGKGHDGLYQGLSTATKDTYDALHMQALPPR

B1: DARPin® protein #27 (designed binder)
chain: DLGKKLLEAALEGQLDEVRELLKAGADVNAKDQEGYTPLHLAAALGHLEIVEVLLKAGADVNAKDSIGRTPLHLAAYKGHLEIVEVLLKAGADVNAQDLLGETPADLAAEQGHQDIAEVLQKAAGSPTPTPTTPTPTPTTPTPTPTGSDLGVKLLLAASRGQLDEVRILLKAGADVNAKDIDEGYTPLHIAAYYGHLEIVEVLLKAGADVNAKDRYGKTPLHLAAISGHLEIVEVLLKAGADVNAQDDKGDTPADLAADYGHQDIAEVLQKAAGSPTPTPTTPTPTPTTPTPTPTGSDLGQKLLEAAWAGQDDEVRELLKAGADVNAKNSRGWTPLHTAAQTGHLEIFEVLLKAGADVNAKDDKGVTPLHLAAALGHLEIVEVLLKAGADVNAQDSWGTTPADLAAKYGHEDIAEVLQKAA
notes: CD123-CD33-CD3; also called αCD123-aCD33-αCD3_1; not shown: N-terminal His-tag
For B1, the Kd (as a rule, the equilibrium constant for the complex coming apart) in experiment [1] is around 20 nM; in experiment [2] it was around 4.5 nM; in experiment [3] it was 20 nM. In addition, the kon (commonly the rate constant with which the complex forms) in experiment [4] was around 1e+07 M⁻¹ s⁻¹. Also, the response in experiment [5] was half-maximal at 6.52 nM (EC50).
